The values below come from patent US9486519B2, “Use of FLT3 ligand for enhancing immune responses in RNA immunization” (BioNTech AG, priority 2008, dated 2016).

Experiment [1] has as its system dendritic cells. Put plainly: Activation status (CD86, CD80, MHC-II, CD40) of lymph node dendritic cells after Flt3L. The class given is in vivo, C57BL/6 mice. To be noted: 10 μg day 0 and 3; day 10. As to the method: In addition, C57BL/6 mice (n=3-7) were administered Flt3L twice (day 0 and 3, each time 10 μg). On day 10 the lymph nodes were removed and the activation status (CD86, CD80, MHC-II, CD40) of the dendritic cells was determined by flow cytometry.

The subject of experiment [2] is SIINFEKL epitope-specific CD8+ T cells. In words: Tetramer and intracellular IFNγ measurement after Flt3-L pretreatment and intranodal RNA immunization. Format: in vivo, C57Bl/6 mice. The note with it: dose above 2×10 μg; data not shown.
In a further experiment the test system is B16 Ova tumors. Put plainly: Therapeutic vaccination against B16 Ova tumors, tumor volume. Format: in vivo, C57BL/6 mice. Here is the method: Examination of tumor growth. To this end, four groups (n=10) of C57BL/6 mice were formed. All mice received on day 0 a s.c. injection of B16 Ova tumor cells (2×10^5). Hereof a control group was only treated by IgG4 injection (15 μg; d3, d7, d14, d18). […] The tumor volume was determined after tumor inoculation on a regular basis (d7, d10, d13, d16, d19, d22). The average tumor volume [mm^3] on the days following tumor inoculation [day] is shown.
To this end four groups (n=10) of C57BL/6 mice were formed. All mice received on day 0 a s.c. injection of 2×10^5 B16 Ova tumor cells (Bellone et al., J. Immunol., 2000, 165:2651-2656). Thereof a control group was only treated by injection of IgG4 (15 μg; d3, d7, d14, d18). […] The tumor volume was determined on the following days after tumor inoculation: d7, d10, d13, d16, d19 and d22 (d=day).

In experiment [3] the test system is dendritic cells. In words: Dendritic cell subpopulations in spleen and lymph nodes by flow cytometry after i.p. Flt3-L. The class given is in vivo, C57Bl/6 mice. To be noted: 10 μg i.p. d0, d3; day 10. Here is the method: C57Bl/6 mice (n=3) were administered 10 μg Flt3L twice (d0, d3) intraperitoneally. On day 10 the inguinal lymph nodes were removed, the cells were stained with corresponding antibodies and the subpopulations of the dendritic cells were quantified by flow cytometry. The data shown represent the average cell count of the subpopulation *: p<0.05 and **: p<0.001 in the two-sided unpaired t-test.
To test the effects of application of human Flt3 ligand on the efficiency of RNA-based immunizations, the changes in the cellular composition of lymph nodes and spleen were first investigated in the mouse model. For this, various application schemes (2×, 3×, 5×10 μg) of recombinant Flt3-L were applied intraperitoneally and the cellularity was determined 10-12 days after the first injection. […] This increase could be shown for all relevant subpopulations of the dendritic cells in spleen and lymph nodes (FIG. 2).
A general note: In flow cytometry, cells or beads pass a laser one at a time.

B1: Flt3L-IgG4: recombinant human Flt3 ligand prepared as a fusion protein with IgG4, SEQ ID NO: 6, expressed in HEK293 cells (protein)
chain: MTVLAPAWSPTTYLLLLLLLSSGLSGTQDCSFQHSPISSDFAVKIRELSDYLLQDYPVTVASNLQDEELCGGLWRLVLAQRWMERLKTVAGSKMQGLLERVNTEIHFVTKCAFQPPPSCLRFVQTNISRLLQETSEQLVALKPWITRQNFSRCLELQCQPDSSTLPPPWSPRPLEATAPTAPQPPRSPPCPSCPAPEFLGGPSVFLFPPKPKDTLMISRTPEVTCVVVDVSQEDPEVQFNWYVDGVEVHNAKTKPREEQFNSTYRVVSVLTVLHQDWLNGKEYKCKVSNKGLPSSIEKTISKAKGQPREPQVYTLPPSQEEMTKNQVSLTCLVKGFYPSDIAVEWESNGQPENNYKTTPPVLDSDGSFFLYSRLTVDKSRWQEGNVFSCSVMHEALHNHYTQKSLSLSPGK
modifications: Fusionsprotein
B1: the “maturation of the dendritic cells in the lymph node” value in the experiment with dendritic cells [1] is given as “does not lead to maturation of the dendritic cells”. Also, the “immune response on increase of the Flt3-L dose” value in experiment [2] is reported as “not correlated with a further intensification of the immune response”. Also, the tumor growth result is “complete suspension of tumor growth” in the experiment on B16 Ova tumors (Flt3L administration combined with RNA vaccination) and “slight delay of tumor growth” in the experiment on B16 Ova tumors (only Flt3L administered, 15 μg). In addition, the “effect of the combination with intranodal vaccination of RNA” value in the experiment on B16 Ova tumors (tumor volume) is “synergistic effect”. Further, the “dendritic cells in spleen and lymph nodes” value in the experiment on dendritic cells [3] is “increase in dendritic cells”.
